Laboratory results reported in patent US20180238915A1 (published 2018).
Like-named read-outs stand apart in the source and are kept apart here.

T1: negatively modulated GCSF receptor (GCSFR(-)) (UniProt Q99062 25-621, modified by S-HyNic and conjugated through HyNic-4FB bonds to a 64-base DNA oligonucleotide (SEQ. ID 2, 5' C12 amino modifier); number and sites not stated)
T1 chain: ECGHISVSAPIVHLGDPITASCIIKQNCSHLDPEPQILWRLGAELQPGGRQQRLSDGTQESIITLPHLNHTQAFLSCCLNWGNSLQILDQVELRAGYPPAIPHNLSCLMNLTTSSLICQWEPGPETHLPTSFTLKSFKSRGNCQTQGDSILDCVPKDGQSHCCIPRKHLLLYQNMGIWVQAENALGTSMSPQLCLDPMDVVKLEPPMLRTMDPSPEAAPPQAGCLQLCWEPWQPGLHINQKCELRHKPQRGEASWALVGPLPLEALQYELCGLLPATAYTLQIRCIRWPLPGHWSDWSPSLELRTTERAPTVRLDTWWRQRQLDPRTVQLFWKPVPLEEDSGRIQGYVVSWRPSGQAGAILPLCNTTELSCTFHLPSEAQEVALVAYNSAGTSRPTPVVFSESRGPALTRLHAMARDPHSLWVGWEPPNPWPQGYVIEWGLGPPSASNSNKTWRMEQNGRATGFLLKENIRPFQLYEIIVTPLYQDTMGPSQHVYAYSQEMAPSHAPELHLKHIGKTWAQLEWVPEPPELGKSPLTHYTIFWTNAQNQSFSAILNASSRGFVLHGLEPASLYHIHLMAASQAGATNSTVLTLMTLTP

B1: labeled G-CSF (Alexa Fluor 488) (ligand)
chain: TPLGPASSLPQSFLLKCLEQVRKIQGDGAALQEKLCATYKLCHPEELVLLGHSLGIPWAPLSSCPSQALQLAGCLSQLHSGLFLYQGLLQALEGISPELGPTLDTLQLDVADFATTIWQQMEELGMAPALQPTQGAMPAFASAFQRRAGGVLVASHLQSFLEVSYRVLRHLAQP
modifications: Alexa Fluor 488 label (carboxylic acid succinimidyl ester); sites not stated
B2: G-CSF (ligand)
chain: B1 chain

Legend:
[1] = biological target: T1, negatively modulated GCSF receptor …
receptor [2] = biological target: receptor
receptor [3] = test: BLI

| koff [1] [s⁻¹] | koff (receptor [2]) [s⁻¹] | koff (receptor [3]) [s⁻¹] | Binder |
| --- | --- | --- | --- |
| 5e-05 | – | – | B1 |
| – | 3.8e-05 | < 1e-06 | B2 |
